For two substances, stoichiometry N results are on record in article PMC12753717.

Experiment [1] concerns the target soluble envelope protein ectodomain of yellow fever virus strain Asibi with C-terminal 3C site and TwinStrep tag (yellow fever virus strain Asibi). As to the kind of experiment: SEC-MALS.
The target in experiment [2] is soluble envelope protein ectodomain of yellow fever virus strain 17D with C-terminal 3C site and TwinStrep tag (yellow fever virus strain 17D). Briefly: SEC-MALS. A general note: In gel filtration, larger molecules generally elute earlier.

In the case of “precursor peptide pr of yellow fever virus strain Asibi, canonical furin cleavage product (pr1, 9.95 kDa)”, in experiment [1], the stoichiometry N – broadly, a count of units in the complex or per binding partner – was 1. Take “precursor peptide pr of yellow fever virus strain 17D”: the stoichiometry N in experiment [2] was 1.
